# Measurements taken from patent publication US20180045721A1.
# Biological target: streptavidin, P22629
# Experiment: SPR, BIAcore X100, streptavidin coupled to the chip, peptide in solution
# Sequence of streptavidin, P22629 (P22629 37-163 limits assumed): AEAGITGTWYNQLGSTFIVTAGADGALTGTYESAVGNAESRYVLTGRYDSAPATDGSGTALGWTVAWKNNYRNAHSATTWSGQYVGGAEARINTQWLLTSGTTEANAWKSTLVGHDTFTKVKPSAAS
row,Binder,Kd
1,LYDHPQNGGQ (modifications not checked),9.4 µM
2,NQPWQ (modifications not checked) [head-to-tail cyclic NQpWQ peptide],61.3 µM
3,H-LYDHPQNGGQ-OH,100 µM

# The remaining binders from weak to strong by Kd, led by results:
row,Kd,Binder
1,320 µM,H-QNDHPQNGGQ-OH
2,10.8 µM,QNDHPQNGGQ (modifications not checked)
